Experimental data as given in patent US20120301394A1 (published 2012).

B1: bivalent anti-MMR Nanobody 1 with human IgA hinge linker (VHH)
chain: QVQLQESGGGLVQPGGSLRLSCAASGNIFSINAIGWYRQAPGKQRELVATITLSGSTNYADSVKGRFSISRDNAKNTVYLQMNSLKPEDTAVYYCNANTYSDSDVYGYWGQGTQVTVSSSPSTPPTPSPSTPPASQVQLQESGGGLVQPGGSLRLSCAASGNIFSINAIGWYRQAPGKQRELVATITLSGSTNYADSVKGRFSISRDNAKNTVYLQMNSLKPEDTAVYYCNANTYSDSDVYGYWGQGTQVTVSSHHHHHH
notes: Two copies of Nb clone 1 in one chain joined by the human IgA hinge linker, with a C-terminal His tag; also called biv MMR linker 3 IgA; MMR biv IgA
B2: NbhmMMRm7.67 (VHH)
VHH: QVQLQESGGGLVQAGGSLRLSCVDQGRTFSVNAMAWYRQAPGKQRELVASITSSGLDTQYAEGMKGRFTISKGNDKFSTYLQMNNLKPDDTAVYYCNAERWDNGMVYWGKGTQVTVSS
B3: bivalent anti-MMR Nanobody 1 with llama IgG2 hinge linker (VHH)
chain: QVQLQESGGGLVQPGGSLRLSCAASGNIFSINAIGWYRQAPGKQRELVATITLSGSTNYADSVKGRFSISRDNAKNTVYLQMNSLKPEDTAVYYCNANTYSDSDVYGYWGQGTQVTVSSAHHSEDPSSKAPKAPMAQVQLQESGGGLVQPGGSLRLSCAASGNIFSINAIGWYRQAPGKQRELVATITLSGSTNYADSVKGRFSISRDNAKNTVYLQMNSLKPEDTAVYYCNANTYSDSDVYGYWGQGTQVTVSSHHHHHH
notes: Two copies of Nb clone 1 in one chain joined by the llama IgG2 hinge linker, with a C-terminal His tag; also called biv MMR linker 2 g2c; MMR biv g2c
B4: anti-MMR Nanobody clone 1 (VHH)
VHH: QVQLQESGGGLVQPGGSLRLSCAASGNIFSINAIGWYRQAPGKQRELVATITLSGSTNYADSVKGRFSISRDNAKNTVYLQMNSLKPEDTAVYYCNANTYSDSDVYGYWGQGTQVTVSS
notes: Monovalent alpaca VHH against mouse MMR; Alexa-fluor labelled for flow cytometry and immunofluorescence; also called Anti-MMR Nb1; anti-MMR Nb clone 1
B5: anti-MMR Nanobody clone 3 (VHH)
VHH: QVQLQESGGGLVQAGGSLRLSCAASGRTFSRDAMGWFRQAPGKEREFVAGISWSGGSTYYADSVKGRFTISRDGAKNTVNLQMNSLKPEDTAVYYCAASSIYGSAVVDGLYDYWGQGTQVTVSS
notes: also called Anti-MMR Nb3; Nb clone 3
B6: NbhmMMRm26.70 (VHH)
VHH: QVQLQESGGGLVQPGGSLRLSCTASGFPFSSAPMSWVRQAPGKELEWVSYIGYTGTITDYANSVKGRFTISRDNAKNRLYLQMNSLKPEDTAVYFCAQGYARLIADSDLVRGQGTQVTVSS
B7: NbhMMRm11.5 (VHH)
VHH: QVQLQESGGGLVQPGGSLMLSCAASGNIFTINRMGWYRQAPGKQRELVAAITSGGNTNYADSVKGRFTISRDNAKNTVYLQMNSLKPEDTAVYYCNAAIVTMTSPYSDYWGQGTQVTVSS
notes: Tested as a periplasmic extract in PE-ELISA
B8: NbhMMRm15.43 (VHH)
VHH: QVQLQESGGTLVQPGGSLRLSCAASGSTFSINNMGWYRQAPGKQRELVAGITGGNTHYADSVKGRFTISRDNAKNTMYLQMNGLKPEDTAVYYCNANWGAYWGQGTQVTVSS
notes: as for B7
B9: NbhMMRm16.95 (VHH)
VHH: QVQLQESGGGLVQPGGSLGLSCAASGRIASISAMGWYRQAPGKQRELVAAITGSGRTNYADSVKGRFTISRDNAKNTVYLQMNSLKPEDTAVYYCNLLMVDYGLGLGTDYWGQGTQVTVSS
notes: as for B7
B10: bivalent anti-MMR Nanobody 1 with (Gly4Ser)3 linker (VHH)
chain: QVQLQESGGGLVQPGGSLRLSCAASGNIFSINAIGWYRQAPGKQRELVATITLSGSTNYADSVKGRFSISRDNAKNTVYLQMNSLKPEDTAVYYCNANTYSDSDVYGYWGQGTQVTVSSGGGGSGGGGSGGGGSQVQLQESGGGLVQPGGSLRLSCAASGNIFSINAIGWYRQAPGKQRELVATITLSGSTNYADSVKGRFSISRDNAKNTVYLQMNSLKPEDTAVYYCNANTYSDSDVYGYWGQGTQVTVSSHHHHHH
notes: Two copies of Nb clone 1 in one chain joined by a (G4S)3 linker, with a C-terminal His tag; also called biv MMR linker 1 GS; MMR biv (Gly4Ser)3

Tests used:
[1] = biological target: T1, Recombinant mouse MMR (R&D systems) (mouse, UniProt Q61830 20-1388); assay: SPR on immobilized recombinant MMR
T1 construct: Bought recombinant extracellular portion of mouse MMR with a C-terminal His tag; It was immobilized on the CM5 chip for SPR and coated on plates for PE-ELISA; The SPR methods say only 'MMR'; also called mMMR; recombinant MMR
T1 sequence: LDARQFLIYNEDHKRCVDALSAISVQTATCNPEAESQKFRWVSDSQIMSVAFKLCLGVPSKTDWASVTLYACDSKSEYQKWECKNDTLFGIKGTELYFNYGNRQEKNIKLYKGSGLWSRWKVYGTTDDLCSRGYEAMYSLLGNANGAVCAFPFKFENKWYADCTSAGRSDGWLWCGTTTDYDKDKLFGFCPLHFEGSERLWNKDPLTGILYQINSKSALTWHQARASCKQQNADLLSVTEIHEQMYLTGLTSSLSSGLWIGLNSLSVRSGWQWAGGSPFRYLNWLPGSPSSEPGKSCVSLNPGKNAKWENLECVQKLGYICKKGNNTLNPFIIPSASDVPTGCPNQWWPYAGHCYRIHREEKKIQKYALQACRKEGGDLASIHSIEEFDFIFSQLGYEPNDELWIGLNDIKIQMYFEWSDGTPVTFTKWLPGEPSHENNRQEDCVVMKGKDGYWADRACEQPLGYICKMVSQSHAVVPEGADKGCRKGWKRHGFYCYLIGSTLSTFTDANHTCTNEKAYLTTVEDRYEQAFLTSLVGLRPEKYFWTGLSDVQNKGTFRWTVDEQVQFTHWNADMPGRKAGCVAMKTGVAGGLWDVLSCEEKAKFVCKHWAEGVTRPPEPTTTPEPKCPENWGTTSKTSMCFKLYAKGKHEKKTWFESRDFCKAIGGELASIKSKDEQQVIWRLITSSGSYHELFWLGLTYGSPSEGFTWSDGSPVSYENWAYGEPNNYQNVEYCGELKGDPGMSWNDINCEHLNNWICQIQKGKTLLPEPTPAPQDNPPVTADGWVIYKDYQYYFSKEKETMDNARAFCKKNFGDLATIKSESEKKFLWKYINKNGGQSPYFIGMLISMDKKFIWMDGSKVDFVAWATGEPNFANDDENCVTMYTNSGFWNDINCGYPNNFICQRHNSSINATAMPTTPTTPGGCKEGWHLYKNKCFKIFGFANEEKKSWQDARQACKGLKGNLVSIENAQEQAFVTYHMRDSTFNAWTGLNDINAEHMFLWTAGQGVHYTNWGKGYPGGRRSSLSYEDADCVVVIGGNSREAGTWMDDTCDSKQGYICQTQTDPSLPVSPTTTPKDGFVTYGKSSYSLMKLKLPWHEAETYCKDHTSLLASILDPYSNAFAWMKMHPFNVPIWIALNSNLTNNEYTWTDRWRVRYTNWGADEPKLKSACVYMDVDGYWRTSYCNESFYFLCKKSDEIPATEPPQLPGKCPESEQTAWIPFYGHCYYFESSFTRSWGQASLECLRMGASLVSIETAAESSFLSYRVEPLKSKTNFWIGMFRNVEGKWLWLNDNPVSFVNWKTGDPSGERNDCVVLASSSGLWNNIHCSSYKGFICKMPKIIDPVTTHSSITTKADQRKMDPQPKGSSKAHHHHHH
Description: (§1) Affinity analysis was performed using a BIAcore T100 (GE Healthcare) with HEPES-buffered saline running buffer (10 mM HEPES with 0.15 M NaCl, 3.4 mM EDTA and 0.005% surfactant P20 at pH 7.4). MRR was immobilized on a CM5 chip in acetate buffer 50 mM (pH 5.0), resulting in 2100 RU MMR coated on the chip. A second channel on the same chip was activated/deactivated in a similar way and served as a negative control. The MMR Nanobodies were used as analytes in eleven different concentrations, ranging from 1 to 2000 nM, at a flow rate of […]. Glycine-HCl 50 mM (pH 2.0) was used for elution. The kinetic and equilibrium parameters (kd, ka and KD) values were calculated from the combined sensogram of all concentrations using BIAcore T100 evaluation software 2.02 (GE Healthcare).
Nanobodies (Nb) were raised against the recombinant extracellular portion of MMR (α-MMR Nb), as described in the Materials and Methods (see also Example 9; Table 4). The binding characteristics of the monovalent anti-MMR nanobodies were compared using surface Plasmon resonance measurements (Table 5). […] Further, bivalent nanobodies were constructed by linking two anti-MMR nanobody 1 entities using (G₄S)₃ ([…]; SEQ ID NO:121), llama IgG2 hinge ([…]; SEQ ID NO:122) or human IgA hinge ([…] SEQ ID NO:123) linkers. […] As a negative control nanobody in all experiments, we consistently used α-BCII10 Nb, which is a binder of the β-lactamase BCII enzyme of Bacillus cereus.

[2] = biological target: T1, Recombinant mouse MMR (R&D systems); assay: SPR, BIAcore T100, MMR immobilized on CM5 chip, bivalent Nb as analyte
Description: as §1

[3] = biological target: T2, Recombinant human MMR (R&D systems) (human, UniProt P22897 19-1383); assay: listed as a cross-reactive Nb; selection by PE-ELISA on human MMR (Example 26)
T2 construct: Bought protein (R&D Systems #2534) coated on ELISA plates; also called hMMR; MRC1
T2 sequence: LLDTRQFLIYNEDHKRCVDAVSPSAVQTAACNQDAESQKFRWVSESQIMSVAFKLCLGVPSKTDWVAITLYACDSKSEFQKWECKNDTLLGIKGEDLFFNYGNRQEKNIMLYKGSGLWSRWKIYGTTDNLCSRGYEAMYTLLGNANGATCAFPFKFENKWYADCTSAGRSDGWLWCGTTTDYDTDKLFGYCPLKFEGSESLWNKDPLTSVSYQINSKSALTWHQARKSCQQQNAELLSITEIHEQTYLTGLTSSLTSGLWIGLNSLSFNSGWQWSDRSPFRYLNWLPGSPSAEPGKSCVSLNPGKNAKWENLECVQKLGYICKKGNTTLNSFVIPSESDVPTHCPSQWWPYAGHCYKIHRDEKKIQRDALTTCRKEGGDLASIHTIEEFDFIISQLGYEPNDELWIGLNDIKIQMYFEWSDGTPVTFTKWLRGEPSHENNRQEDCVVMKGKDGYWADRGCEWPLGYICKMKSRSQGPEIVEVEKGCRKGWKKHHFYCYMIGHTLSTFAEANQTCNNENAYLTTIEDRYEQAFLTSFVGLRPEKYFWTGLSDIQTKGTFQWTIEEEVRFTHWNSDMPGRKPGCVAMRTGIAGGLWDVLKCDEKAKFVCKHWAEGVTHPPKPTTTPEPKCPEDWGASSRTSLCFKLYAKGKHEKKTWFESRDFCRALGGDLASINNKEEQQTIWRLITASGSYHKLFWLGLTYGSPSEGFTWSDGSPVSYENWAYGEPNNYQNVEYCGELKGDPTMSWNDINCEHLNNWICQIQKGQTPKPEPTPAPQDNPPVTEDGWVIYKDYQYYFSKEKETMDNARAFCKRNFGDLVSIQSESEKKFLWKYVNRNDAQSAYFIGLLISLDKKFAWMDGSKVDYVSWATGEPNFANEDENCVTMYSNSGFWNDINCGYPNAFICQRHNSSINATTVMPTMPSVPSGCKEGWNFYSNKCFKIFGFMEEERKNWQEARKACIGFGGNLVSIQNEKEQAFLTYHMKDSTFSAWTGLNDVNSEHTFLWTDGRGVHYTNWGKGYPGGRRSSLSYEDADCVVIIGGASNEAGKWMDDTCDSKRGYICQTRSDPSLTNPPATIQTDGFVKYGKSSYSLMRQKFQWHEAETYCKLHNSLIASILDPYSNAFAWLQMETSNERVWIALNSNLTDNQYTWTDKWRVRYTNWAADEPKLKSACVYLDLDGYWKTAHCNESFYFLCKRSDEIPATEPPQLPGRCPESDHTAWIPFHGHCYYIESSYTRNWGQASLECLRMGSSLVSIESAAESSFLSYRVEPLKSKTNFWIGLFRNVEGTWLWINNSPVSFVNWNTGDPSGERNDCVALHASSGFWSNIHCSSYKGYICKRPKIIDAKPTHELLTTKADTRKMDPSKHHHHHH

[4] = biological target: T1, Recombinant mouse MMR (R&D systems); assay: SPR, BIAcore T100, MMR immobilized on CM5 chip, Nb as analyte
Description: as §1
Nanobodies (Nb) were raised against the recombinant extracellular portion of MMR (α-MMR Nb), as described in the Materials and Methods (see also Example 9; Table 4). The binding characteristics of the monovalent anti-MMR nanobodies were compared using surface Plasmon resonance measurements (Table 5). […] Further, bivalent nanobodies were constructed by linking two anti-MMR nanobody 1 entities using (G₄S)₃ ([…]; SEQ ID NO:121), llama IgG2 hinge ([…]; SEQ ID NO:122) or human IgA hinge ([…] SEQ ID NO:123) linkers. […]

[5] = biological target: T1, Recombinant mouse MMR (R&D systems); assay: listed as a cross-reactive Nb; selection by PE-ELISA on mouse MMR (Example 26)
[6] = biological target: T2, Recombinant human MMR (R&D systems); assay: PE-ELISA, periplasmic extract on coated human MMR, OD405 at least 3x over milk-blocking proteins

Row | Binder | fold higher avidity compared to the monovalent clone 1 nanobody [1] [fold] | Kd [2] [nM] | binding result [6] | further results
1 | B1 | 5 | 4.69 | – | –
2 | B2 | – | – | – | binding result [3]: binds
3 | B3 | 5 | 4.04 | – | –
4 | B4 | – | – | – | fold higher apparent affinity compared to nanobody clone 3 [1]: 8 fold; Kd [4]: 23.1 nM
5 | B5 | – | – | – | Kd [4]: 191 nM
6 | B6 | – | – | – | binding result [3]: binds; binding result [5]: binds
7 | B7 | – | – | binds | –
8 | B8 | – | – | binds | –
9 | B9 | – | – | binds | –
10 | B10 | 5 | 4.22 | – | –
